The assay has as its target SARS-CoV-2 Spike Receptor Binding Domain (RBD) (Sino Biological) (SARS-CoV-2), P0DTC2. Particulars: remark: other sources report otherwise.

B1: AB-009620 (antibody, V domains shown)
VH: QITLKESGPTLVKPTQTLTLTCTFSGFSLSTSGVGVGWIRQPPGKALEWLALIYWDDDKRYSPSLKSRLTITKDTSKNQVVLTMTNMDPVDTATYYCAHHEVATVFDYWGQGTLVTVSS
VL: QSALTQPASVSGSPGQSITISCTGTSSDVGAYNYVSWYQQHPGKAPKLMIYEVSNRPSGVSNRFSGSKSGNTASLTISGLQAEDEADYYCSSYTSSSTVFGGGTKLTVL
In general, Kd refers to the free concentration of one partner at which half of the binding sites on the other are occupied at equilibrium, for simple one-to-one binding. A low value points to a tighter complex. B1: the Kd was 5.99 nM.

(Values after patent US20240301038A1.)
